In US20240109974A1 (SHANDONG SIMCERE BIOPHARMACEUTICAL, published 2024):
Residue numbers refer to the chain shown, from its start.

B1: 001-Hu5 (antibody, V domains shown)
VH: EVQLVESGGGLVQPGGSLRLSCAASGFAFSTYDLSWVRQAPGKGLEWVAYINNGGISTYYSDTVKGRFTISRDNAKNTLYLQMNSLRAEDTAVYYCVRGPFYGSANYFDYWGQGTLVTVSS
VL: DIQMTQSPSSLSASVGDRVTITCRTSESIYSNLPWYQQKPGKSPKLLVYDATKLAEGVPSRFSGSGSGTDYTLTISSLQPEDFATYYCQHFWVTPWTFGQGTKVEIK
notes: Humanized form of #001; also called VH1 + VL4
B2: 001-Hu3 (antibody, V domains shown)
VH: B1 VH
VL: B1 VL with S43A, V48I
notes: Humanized form of #001; also called VH1 + VL3
B3: 001-Hu2 (antibody, V domains shown)
VH: B1 VH with T78S
VL: B1 VL with V48I, Y71F
notes: Humanized form of #001; also called VH2 + VL2
B4: 001-Hu4 (antibody, V domains shown)
VH: B1 VH with T78S
VL: B1 VL
notes: Humanized form of #001; also called VH2 + VL4
B5: 001-Hu1 (antibody, V domains shown)
VH: B1 VH
VL: B1 VL with S43A, V48L
notes: Humanized form of #001; also called VH1 + VL1

What follows are binders tested against T1, human TNFR2 (Novoprotein, Cat #C830) (human, UniProt P20333 23-257, limits assumed) (assay: competition ELISA, competitor human TNFα-Biotin; IC50 against 001-WT).
T1 construct: construct not described; also called human TNFR2 protein
T1 sequence (looked up): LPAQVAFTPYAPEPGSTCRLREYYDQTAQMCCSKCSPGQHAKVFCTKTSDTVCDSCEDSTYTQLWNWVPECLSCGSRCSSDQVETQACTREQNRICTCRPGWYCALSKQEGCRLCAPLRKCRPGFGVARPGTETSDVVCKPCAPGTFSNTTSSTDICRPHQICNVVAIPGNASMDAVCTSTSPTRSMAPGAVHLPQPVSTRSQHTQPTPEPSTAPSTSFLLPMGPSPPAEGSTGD
Experimental: 1 μg/ml human TNFR2 (Novoprotein, Cat #C830) was pre-coated with 100 μl/well […] in an ELISA plate. All the test TNFR2 antibodies were subjected to 2.5-fold gradient dilution from the highest concentration of 30 μg/ml; the diluted antibodies were mixed with 15 ng/ml human TNFα-Biotin (Acro Biosystem, Cat #TNA-H82E3) in equal volume, respectively; the resulting mixture was added to the ELISA plate at 100 μl/well, and incubated with shaking at room temperature for 2.0 hours. The plate was washed, and then a Streptavidin-HRP working solution (diluted at 1:10000) was added at 100 μl/well, and the mixture was incubated with shaking at room temperature for 40 minutes. The plate was washed again, and then the substrate TMB of HRP was added to develop colour. A stop solution was added to stop the reaction, and then a microplate reader (MD 13) was used to read the absorbance value. The inhibitory curve of an antibody was drawn with antibody concentration as the abscissa and corresponding OD value as the ordinate, and fitted with four parameters (GraphPad Prism9) to calculate the IC50 value. The smaller the IC50 value, the stronger the ability of an antibody to inhibit the binding of human TNFα to human TNFR2. The blocking effect of a humanized antibody was normalized to its corresponding human-murine chimeric antibody WT. The higher the percentage value, the better the inhibitory effect of the humanized antibody.

Going from B1 to B2, the “% Relative activity (WT antibody/test antibody)” value rises from 96.5% to 105%.

Going from B3 to B4, the “% Relative activity (WT antibody/test antibody)” value rises from 82.8% to 105%.

For B5, the “% Relative activity (WT antibody/test antibody)” value was 94.7%.

The binders below were run against T2, human TNFR2 on the surface of CHO-TNFR2 cells (human, UniProt P20333 23-461) (assay: competition flow cytometry on CHO-TNFR2 cells, competitor TNFα-biotin; AUC against 001-WT).
T2 construct: whole, on cells
T2 sequence (looked up): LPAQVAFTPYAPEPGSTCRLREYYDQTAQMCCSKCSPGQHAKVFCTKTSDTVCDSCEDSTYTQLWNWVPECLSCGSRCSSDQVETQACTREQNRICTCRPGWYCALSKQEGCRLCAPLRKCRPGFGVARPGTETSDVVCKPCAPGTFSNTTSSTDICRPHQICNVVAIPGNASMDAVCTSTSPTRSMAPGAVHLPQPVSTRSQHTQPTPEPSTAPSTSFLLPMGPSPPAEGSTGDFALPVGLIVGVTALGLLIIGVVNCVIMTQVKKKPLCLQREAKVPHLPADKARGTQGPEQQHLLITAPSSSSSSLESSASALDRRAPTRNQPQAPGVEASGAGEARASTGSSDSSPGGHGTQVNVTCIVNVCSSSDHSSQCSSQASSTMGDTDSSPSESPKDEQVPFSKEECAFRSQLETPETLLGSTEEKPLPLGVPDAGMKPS
Experimental: CHO stable cells highly expressing human TNFR2 were used for the experiment (the same as CHO-TNFR2 in Example 4). The CHO-TNFR2 cells were digested, washed twice with DPBS, then stained with Live/Dead (L/D) (20 minutes at room temperature), and plated at a density of 1×10⁵ cells/50 μl/well. A test anti-TNFR2 antibody was diluted to 6 μg/ml with a staining buffer as the starting concentration: the antibody was subjected to 3.33-fold gradient dilution, with a total of 7 concentration points. The diluted antibody was added to the plated cells at 50 μl/well, and the mixture was mixed well by gentle pipetting, and incubated at 4° C. for 30 minutes. Then the diluted 100 ng/ml of human TNFα-biotin was added at 100 μl/well, and the mixture was mixed well by gentle pipetting, and then incubated at 4° C. for 30 minutes. The mixture was washed twice with a staining buffer, and then 0.12 μg/ml PE-streptavidin (BioLegend, Cat #405204) was added at 100 μl/well; the resulting mixture was incubated at 4° C. for 30 minutes. The mixture was washed twice with a staining buffer, and then 150 μl of staining buffer was added to resuspend the cells; signals were detected by a flow cytometer (Thermo Attune NxT). The inhibitory curve of an antibody was drawn with antibody concentration as the abscissa and corresponding MFI value as the ordinate, and fitted with four parameters (GraphPad Prism9) to calculate the IC50 value. The smaller the IC50 value, the stronger the ability of an antibody to inhibit the binding of human TNFα to human TNFR2. The blocking effect of a humanized antibody was normalized to its corresponding human-murine chimeric WT antibody. The higher the percentage value, the better the inhibitory effect of the humanized antibody.

Going from B1 to B2, the “% Relative activity (WT antibody/test antibody)” value rises from 93.1% to 97.8%.

Going from B3 to B4, the “% Relative activity (WT antibody/test antibody)” value falls from 95.8% to 93.7%.

B5 was tested, and the “% Relative activity (WT antibody/test antibody)” value was 97.4%.
